Test: label from the status in PepcDB records

Sequence | protein production
MKWVTYRSDHGERTGVLSGDAIYAMPPDVSLLDLVGRGADGLRTAGERAVRSPAAVVALDEVTLAAPIPRPPSIRDSLCFLDHMRNCQEAMGGGRVLMDTWYRIPAFYFACPSTVLGPYDDAPTAPGSAWQDFELEIAAVIGTSGKDLTVEQAERSIIGYTIFNDWSARDLQMLEGQLRIGQAKGKDSGITLGPYLVTPDELEPYCRGGKLSLRVIALVNGTVIGSGSTAQMDWSFGEVIAYASRGVTLTPGDVFGSGTVPTCTLVEHLRPPESFPGWLHDGDVVTLQVEGLGETRQTVRTSGTPFPLALRPNPDAEPDRRGVNPAPTRVPFTRGLHEVADRVWAWTLPDGGYGFSNAGLVAGDGASLLVDTLFDLALTREMLAAMKPVTERAPITDALITHSNGDHTHGTQLLDRSVRIIAAKGTSEEIEHGPAPEMLARIQTADLGPVATRYLRDRFGHFDFSGIKLRNADLTFDRDLAIELGGRRVDLLNLGPAHTTADSVVHVADAGVLFAGDLLFIGCTPIVWAGPIANWVAACDAMIALDAPTVVPGHGPVTGPDGIRAVRGYLAHIAEQAEAAYRKGLSLPEAVETIDLGEYASWLDSERVVVNVYQRYRELDPDTPRQDLLALLVMQAEWAARHCT | failed
MKWYEQPLHTLSHAQWEALCDGCGQCCLNQLLDEEDNLYSTDVACRLLDTKTASCSDYAHRSERVPACVTLTPDNLDEVYFMPASCAYRLRAEGQPLPQWHPLRHEGSKEPMKKAGYHVAGHCVSEAKFKGDLEDRIVTWPLS | failed
MKYCTLDDLILSFGQDEIYRLIATDQEAEKALDDAQAEIDMYLSDRYALPVKSVPKSLNRIACDIAHYYLYNSVDEDSTVYLRYKHRIKQLSDVAAGKLSLGLYDKSDDATTDNQVVFIKSSKKVFAR | not failed
MKYIEPHFISFTQHTLKSQLIPKSFHGMKILQFSDLHLGYYFSLQHLSQVVSKINAVNPDIVLFTGDLIDNYQTYTDTPFVASILKNIQAPFGKFAIYGNHDHGGYGTEYYEHIMRESGFELLLNSKKRIRLMDNSEISIFGLDDILLGKPKIEKTLQHARQNTYNIVLVHEPDIAPQISKYPINLQLSGHSHGGQVQIPFLGAIITPSLAKDYIEGFYTMQDLTLYVNRGLGRTRVPFRFMSKPEITIFTLQHSLEHHHHHH | failed
MKYLAGIVTFNPNIERLDQNIRAIYPQVSHIYIVDNGSKNKEEISQLVADYNEEGHLTVDYLTENKGIAYALNCIGQFAVAQEFDWFLTLDQDSVVLGDLIDNYENYLHLPKVGMLSCLYQDMNRENLVMQEFDYKEIEECITSAALMKTSVFEETSGFAEEMFIDFVDSEMNYRLSEMGYKTYQVNFIGLLHEIGHSSRVKKFGHVFHVLNHSPFRKYYMIRNAIYIIKKYGKKKRYKYLVFMRNEFVRVLVAEEQKSKKIVAMIKGLKDGLLMKVDKYGKLEHHHHHH | not failed
MKYLHFTRPTIKVIFMINSIKTLLLIATLAILSACGWHFQQSVTMPSEWRTLALESDDSYNDFTVIMRRKLQENQVNVVNLEQNIPILRINKQITSDQVASIFKHGREAEKLLMLEVEATFRLANGESYPINAKVNRTFFDNARAALAKSEEREVIWNDMREQVARQLIVKIIALQNQIKRKLEHHHHHH | failed
MKYMIPDEEFIRREGVPITKEEIRAVSIGKLNLNKDDVVVDVGCGSGGMTVEIAKRCKFVYAIDYLDGAIEVTKQNLAKFNIKNCQIIKGRAEDVLDKLEFNKAFIGGTKNIEKIIEILDKKKINHIVANTIVLENAAKIINEFESRGYNVDAVNVFISYAKKIPSGHMFLAKNPITIIKAVR | not failed
MKYNKDGQTFLLVLDKGEDIVEVLTQFAMEQEMKFGSVSGIGACDNVTLIFYNLDTQKYESREVNEALELTSLLGNISHIDDKPFAHLHGTFGTRDFQTLSGHLTKAVVSATAEIVIQMTNLDVNRTHDEETGLNLLRP | failed
MKYSWNKTVFPIAAIFSFRLLGLFLLIPVFTLYATNLKGATPTLIGLALGSYGLAQGLLQIPFGMLSDKLGRKPMIAIGLLLFAGGSLLGAVTHSIAGMITARILQGAGAIGSVLIALLADLTLDEQRTKAMAIVGITIGTSFSLAMIISPALTHYYGLSGVFYLTAALAVLGIMILYLIIPNPSKEQFHADSEPSLSLIKPVVTDQHLQRLNFGIFCQHFILTATFFAIPMLLKYQIENGHLHQQWHFYLPLMLFSFILMVPFIIISERKKRLKTVFVISVLLTTFTQGLLVLASQNWYWFCILMFVYFVSFNVLEATLPSLVSKLASPGSKGTAMGIYSTSQFLGIFFGGSLAGILYQWYDNQAIFLINMILSCLWFIISLSMKSNVYFSTLILPFTANNEESKLVVNQLLKVAGIKEVILSKDENTLYVRVDNEEYSTGSAEKILHQSTIYQ | failed
MKYTIEEIRQMQEGQTFDCKSILIEPKHLATIIVAMANADGGMIAVGISDKTRRIEGVNQDKEHLNDILRTPLDFCVPSVSVTTDYVPCTDAEGRDNRVLLMHIPASPRLHANQADEVFWRVGDKSRKLTFDERLQLMYDKGERYYEDSTAYDATLDDIDMDAVKAYMKRIGYGKSAMEYLQENKGFVTYKGDVPQVSAACILLFGKHPQTFFPRARVRFIKYFGTEEKVGREMNVIKDVTFDGRILEQIQKTVEYLETQVKEHSYLGEDGIFKTDREYPKFVIQEMVVNSVCHRDYSIKGTEIQIKMFDDRLVFETPGKLPGIVRTDNIRHTHFSRNPKIAEFLKAYDYVKEFGEGVDRMCRELSALGVKEPQYNLVAFIMKATVCAKVLEERQGTNHFDQKRPESDQKSDQMRIILELIKSNPNISRTELSEKTGLHDSSVKRRLKTLVDEGLIQRVGPDKGGQWKVIGSLLEHHHHHH | not failed
MKYYDEVPIIRSVAAMLVVAIHTVNSIALSRGTFTSDGLGYVNQIARLGTPIFAVISAFLLTISVVNKGFNLDYFVKSRFSKIFIPYIIWTVFYLLYRAFYLHNLEDDGKLLNYFVYGKANFHLYFILTVIQFYFLFPLLQKFKKGWPIIIVYILATIANIIWIRMGPVSLGGGGVERFVNDKLFIMNWISFFMLGIVYAKFYNEIRILIFKHKAILSTIIGILFIDFLLSIDLDHLQSSITVSNMIYIPFFIVFLNYLYEHVKKNHTILKTLTLIGNYSMGIYLVHYVAIQFVKRLPIIEDIVPQSKFMGVFILTVAVSVLIVYLIGKIPYGNYIVPIPKKKATQTTDVDKKKVTQSKHTPNYNS | failed
MLAAAVLPKLLRHMPLSMPMVFLGSGILAFTLLPELPDPDPVKYGDFTTHLTEVCVIISLMGAGLALDRPFRWRGWSTTWRLLGIVMPLCILVMTLLGLWVLGLGLAGAILVAGAIAPTDPVLASEVQVGKPADAEDDPDEDEVRFALTSEAGLNDGLAFPFVYLAILISLVGASPDAWLGEWVALDVLWRTVAGVLVGFGTGKLLSMFFFAAKGKTFRLSEHSEGFVALAATFLAYGAAEMVEGYGFVAVFLCALTIRSAEHNHSYHQVLHSYVEQLERLMTVVILVLLGGAIARGLLEGIGWTEVLVALAFLLLVRPLAGWLGLMGGKTGPRERLAISYFGIRGIGSLFYVAYALTHGNFDAEARELWALIGLVVALSIVVHGATTAPLMNRLDRLRVAEARKQHGDEGRAPTTAV | failed
MLAAEANLELDRETIRRQLWQSEAPEKRAGSLRQLLARIEQSIPAALPPLLKATRTHIGLADGWEVDVHMLKQKGPLAAEDGDILNGELLESAKSPTQGAEDWLTFERQRVDELRAAHLTRLVETAEDRSDEEQVAFARRLLELDPASETAYRALMRTYVRMNDPAAARQTYLKCKSQLKDEFDAEPEESTTALARELGLIPAAQPAAAERPSAGPSGFADLLGQPRIIILPPESIFTDPLMERVGRALLEDVTIGLSQQRGFRVIAAHTSLEILSRSVDPARAVPRPLDLSFDYAVYVTIQGRDEDVYATCRLTRTTTSEVIWALELPLVMQKISESFAHLTRRIVSSLADTVERHELAMPIGDAPPSAYRLYLEGKRLIAQTDLQHLRQARKWFKSSLNRYENFSAAHAGVSRALGMEWLIRGMQDTELLDEANGAARQAQQSDPNSGRAYRELGFVALYRRRFDESLDYFQQAQDLNPNDADILADYADALCHYGDFDKALDLNNAAFKLNPLPPDYYYWNRGGIHFDRGEYQQAIEALEPVKSKQATARLLAAAHAMAGDMKKAGGYASVVLDNFPDFRSEDIRHFVPDRDPRYTETLIHGLHLAGLP | failed
MLAEAGTGTGVAAAASHDAPPKAVPRQLPAPPRITAFLSAFATPPPHCLRLNKSLNGLHNPVTLHVVCQYMLLRSVHGGRERYLNAHVSQGSWPVLVLNADFRPLSYYPLSLWSWQDAIKAVFLDRVNIVAHYDQAVRSPTLEMQLPSVVSLKSFVKPTTHPAFTRFNVFLRDRFACQYCGSPEDLTFDHIIPRSKGGQTTWENVVAACSPCNLRKGNLTPAQAKMFPRQSAFAPTVHQLHRNGRMFPPNYLHDSWLDYLYWDTELDP | failed
MLAILIFSFLLVILVAGNNSSAVSGTIIGSKMMNKSLALAITAVGYIAGYLLEGRFLQHAVNELLPFEPEYVLYAIIASFVIFTIAFFVKVPISLTMALVGSAIGLSLKLGYSSDARFLTEVIIAWIAAPLISVGSSYVFNDRLSKMRHGDIWRYASAIKVMPIVTAIFTAFTLGANTIGFLGDISGTAVFNEILISIGSVIGTFFFSSGIMKSVSQNMYMMKYTNAFSSQLISALVVEVSTLFSIPMSNTQTLTSAVLGAGLSYRAKAIYLKPFLYIVIMWILSPLIGMAFTYALA | failed
MLAKIIMKNFKSFKNETVIDFTRINYKFLENNVSNNGVLKGVAFYGANASGKSNVLWAIRFLLDELFGEEKNPVTFMKCLFSDEPEFSLQYFFVIESREIHYLIDFHTEKGIINEELYLDRKLLLQRMGSTAKSGITEKKVYTDLNNKVLFLRTVYFNTGFSGDDKDNNANNNILRQWFDYMQNSIYVNPFLHRGIAYGKQDVVLNKYLENEGVKEINRFFTKYNFEYTLDYLNERKVKDVTEIVNDDNIKLVFFNRKGVNVPIPYVLESHGNQNLLNILPCFLRVVQNSGMLLVDEFSGGLHNELERLLVNYFFLEHHHHHH | failed
MLAKSLGWLLAVSRRNYCMGSRTALASRPWSKHLADPQIDPTAYVHSFANVVGDVRIQPGVSVAPGSSIRADEGTPFWIGGNVLIQHGVVIHGLETGRVLGDDDQEYSVWIGPGTCVAHLALVHGPVYLGANCFIGFRSTVLNARVGDGAVVMMHSLVQDVEIPPNKLVPSGAMITQQHQADSLPDVQAGDRHFVQQIAAMHGQSASPTQGTDPTVCVLPESLPAVTPVTETPYINSIDNMSINSDITNQIRSLLAQGYGIGAEHANERRFKTKSWQSCGTADGFRPDQVIATVEGWLQEFAGEYVRLIGIDQGAKRRVVEVIIQRPGDVPGSPSRGTTTTKALSSGGSGRSAVAHQTGNLAGDSANQLRALLHQGYKIGLEYASARRFKTGSWLTGGTIGSHREGEALQELNRFLADHTNEYVRIIGIDPAGKRRVAEIVVHRPNGNGNGKPSSSSSSVGYKSAPVSSAGGSSAGGLTPEVIATVRGLLANGHSIGTEHTDKRRFKAKSWDTCPTIDGGREAEVLAKLEACLADHAGEYVRIIGIDRVGKRRVLEQIIQRPGDNVVAGRSPSSSSASTSSSASSNGFGSGNGGGYSNSAVRLDNSVVTQVRSLLAQGYKIGTEHTDKRRFKAKSWQSCAPITSTHESEVLRALEGCLADHNGEYVRLLGIDPTAKRRVLETIIQRP | failed
